{
  "source": "paper PMC3337772",
  "proteins": {"B1": {"name": "dopamine transporter (DAT; rDAT) (Rattus norvegicus) (protein)", "chain": "MSKSKCSVGPMSSVVAPAKESNAVGPREVELILVKEQNGVQLTNSTLINPPQTPVEAQERETWSKKIDFLLSVIGFAVDLANVWRFPYLCYKNGGGAFLVPYLLFMVIAGMPLFYMELALGQFNREGAAGVWKICPVLKGVGFTVILISFYVGFFYNVIIAWALHYFFSSFTMDLPWIHCNNTWNSPNCSDAHASNSSDGLGLNDTFGTTPAAEYFERGVLHLHQSRGIDDLGPPRWQLTACLVLVIVLLYFSLWKGVKTSGKVVWITATMPYVVLTALLLRGVTLPGAMDGIRAYLSVDFYRLCEASVWIDAATQVCFSLGVGFGVLIAFSSYNKFTNNCYRDAIITTSINSLTSFSSGFVVFSFLGYMAQKHNVPIRDVATDGPGLIFIIYPEAIATLPLSSAWAAVFFLMLLTLGIDSAMGGMESVITGLVDEFQLLHRHRELFTLGIVLATFLLSLFCVTNGGIYVFTLLDHFAAGTSILFGVLIEAIGVAWFYGVQQFSDDIKQMTGQRPNLYWRLCWKLVSPCFLLYVVVVSIVTFRPPHYGAYIFPDWANALGWIIATSSMAMVPIYATYKFCSLPGSFREKLAYAITPEKDHQLVDRGEVRQFTLRHWLLL"}},
  "substrate": "NCCc1ccc(O)c(O)c1",
  "test": "[3H]DA uptake kinetics",
  "format": "cell-based, Rattus norvegicus",
  "data": [
    {"protein": "B1", "values": [
      {"measurement": "Km", "result": "1.50 ± 0.10", "unit": "µM"}
    ]}
  ]
}
